Test results from the Human Domainome abundance scans (Beltran et al. 2025).

B1: POU domain, class 3, transcription factor 4, residues 280 to 335; numbered along this chain, P49335 (parent)
chain: KKRTSIEVSVKGVLETHFLKCPKPAAQEISSLADSLQLEKEVVRVWFCNRRQKEKR

Variants of: B1
Experiment: abundance fitness (aPCA) (normalised: wild type 0, dead -1); higher = more abundant; growth selection in yeast, the domain comes from the species named
Details: Homo sapiens

Abundance fitness: each site, then its substitutions
E15: Q -0.789; I -0.368; G -0.881; L -0.645; V -0.756; K -0.728
P24: H -0.688; G -0.842; L -0.753; Y -1.07; W -0.514; R -0.405
K11: Q 0.14; S -0.498; V -0.117; G -0.645; H -0.207; D 0.119; M 0.17; R -0.076; A 0.778
F18: C -0.745; G -0.741; L -1.03; Y -0.195; W -0.485; V -0.56; R -0.812; S -0.719; H -0.251; D -0.814; Q -1.16; A -0.891; N -0.859; P -0.992; K -0.461; I -0.851; M -0.893; T -0.732; E -0.851
L19: E -0.391; K -0.461; W -0.624; G -0.504; N -0.343; Y -0.518; A -0.187; F -0.941; R -0.236; T -0.019; D -0.363; P -0.774; I -0.441; Q -0.045; S -0.191; M 0.039; C -0.385; V -0.437
V10: Q -0.193; L -0.472; G -0.751; N -0.279; Y -0.503; H -0.133; E 0.262; K -0.12; I 0.08; M 0.058; A 0.393; C -0.486; T -0.21; R -0.731; S -0.587
K23: R 0.118; Q 0.064; H 0.186; T 0.237; Y 0.396; F 0.137; I -0.369; M 0.149; C 0.218; V -0.225; S 0.17; P -0.697; N 0.559; G -0.664; E 0.142; D 0.263; W 0.037
H17: G -0.662; E -0.172; M -0.019; L -0.401; V -0.017; I -0.542; N -0.458; P -0.957; A 0.085; W -0.159; Y 0.386; C -0.497; S -0.262; D -1; R -0.845; T -0.464
S30: D 0.08; F -0.332; E 0.215; K -0.003; H -0.706; V -0.058; Q -0.163; I -0.148; P -0.652; L -0.536; G -0.209; C -0.396; T -0.118; M -0.262; R -0.185; N -0.196
G12: K -0.009; L 0.004; Q 0.103; S 0.298; D 0.288; R -0.219; V -0.034; A -0.177
L14: S -0.693; Q -0.953; F -0.887; R -0.792; N -0.564; C -0.563; D -0.825; Y -1.08; M -0.623; T -0.537; H -0.983; A -0.955; G -0.891; V -0.788; K -0.655; I -0.607
C21: N 0.31; P -0.483; Q 0.265; W -0.846; M -0.723; G -0.724; K -0.725; L -0.419; E -0.546; R -0.742; I -0.58; T -0.336; V -0.781; S -0.072; A -0.756; H -0.533; D 0.059; Y -0.898
L32: C -0.633; E -0.631; A -0.247
